Results reported in patent US20020028453A1 (CURIS, published 2002).

Biological target: T1, α-2 macroglobulin (Homo sapiens (Human), UniProt P01023 24-1474, Native alpha-2-macroglobulin is a glycosylated homotetramer (disulfide-linked dimers) with an internal thioester; one subunit is given.)
T1 construct: also called alpha-2 macroglobulin
T1 sequence: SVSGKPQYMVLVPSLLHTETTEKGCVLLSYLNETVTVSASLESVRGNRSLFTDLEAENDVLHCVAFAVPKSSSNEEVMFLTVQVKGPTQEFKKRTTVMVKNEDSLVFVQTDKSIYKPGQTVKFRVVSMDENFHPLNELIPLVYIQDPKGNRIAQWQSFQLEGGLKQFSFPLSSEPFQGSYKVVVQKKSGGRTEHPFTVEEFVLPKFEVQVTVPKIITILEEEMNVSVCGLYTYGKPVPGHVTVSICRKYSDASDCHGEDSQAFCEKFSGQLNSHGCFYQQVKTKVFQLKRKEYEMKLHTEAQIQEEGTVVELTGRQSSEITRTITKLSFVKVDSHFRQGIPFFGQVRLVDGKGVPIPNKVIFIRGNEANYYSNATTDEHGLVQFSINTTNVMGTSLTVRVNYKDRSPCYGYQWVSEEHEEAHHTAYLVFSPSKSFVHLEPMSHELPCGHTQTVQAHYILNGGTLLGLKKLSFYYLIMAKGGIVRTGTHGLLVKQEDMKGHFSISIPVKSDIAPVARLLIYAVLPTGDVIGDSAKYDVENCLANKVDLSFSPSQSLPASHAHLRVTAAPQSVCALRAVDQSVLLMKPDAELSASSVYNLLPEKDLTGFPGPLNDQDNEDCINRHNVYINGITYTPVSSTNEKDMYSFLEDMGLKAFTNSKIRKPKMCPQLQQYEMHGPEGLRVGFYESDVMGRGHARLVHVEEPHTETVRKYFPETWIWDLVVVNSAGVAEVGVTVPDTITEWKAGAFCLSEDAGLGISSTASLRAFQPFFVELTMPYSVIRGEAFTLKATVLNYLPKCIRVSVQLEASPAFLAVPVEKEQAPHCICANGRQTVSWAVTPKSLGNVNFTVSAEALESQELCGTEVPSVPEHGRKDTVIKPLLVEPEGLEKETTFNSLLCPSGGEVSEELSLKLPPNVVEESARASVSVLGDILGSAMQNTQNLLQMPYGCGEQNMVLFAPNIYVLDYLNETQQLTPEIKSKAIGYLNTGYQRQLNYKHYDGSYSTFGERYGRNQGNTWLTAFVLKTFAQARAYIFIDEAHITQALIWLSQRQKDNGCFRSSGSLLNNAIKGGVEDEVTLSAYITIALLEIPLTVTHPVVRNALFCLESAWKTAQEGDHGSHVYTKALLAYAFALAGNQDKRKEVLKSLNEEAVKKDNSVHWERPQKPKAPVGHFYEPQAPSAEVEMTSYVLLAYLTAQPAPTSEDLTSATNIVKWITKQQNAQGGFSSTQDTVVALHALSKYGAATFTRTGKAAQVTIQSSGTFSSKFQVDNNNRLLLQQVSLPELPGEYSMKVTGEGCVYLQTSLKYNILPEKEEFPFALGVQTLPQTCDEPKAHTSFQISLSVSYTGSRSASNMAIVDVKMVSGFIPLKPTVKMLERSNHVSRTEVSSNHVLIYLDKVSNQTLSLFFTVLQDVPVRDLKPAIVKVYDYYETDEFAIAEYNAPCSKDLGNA
Assay: competition binding assay, immobilized α-2 macroglobulin
Protocol: OP-1 was determined to interact specifically with α-2 macroglobulin in a standard competition binding assay, using immobilized, commercially available α-2 macroglobulin, and labeled and unlabeled OP-1 protein. […] This N-terminal portion of the protein, which is not part of the crystal structure, is positively charged and likely is highly flexible in solution.

B1: Truncated mature OP-1 (ligand, UniProt P18075 315-431, looked up)
chain: MANVAENSSSDQRQACKKHELYVSFRDLGWQDWIIAPEGYAAYYCEGECAFPLNSYMNATNHAIVQTLVHFINPETVPKPCCAPTQLNAISVLYFDDSSNVILKKYRNMVVRACGCH
notes: range 23-139; The range is on mature-protein numbering (His 139 = C-terminus); also called truncated mature OP-1 (first 22 amino acids cleaved by trypsin)
  fold less affinity (against untruncated OP-1): 10 fold
